IntAct's records for PubMed 29051512

B1: CMRF35-like molecule 7 (Homo sapiens), A8K4G0 (parent)
chain: MWLPPALLLLSLSGCFSIQGPESVRAPEQGSLTVQCHYKQGWETYIKWWCRGVRWDTCKILIETRGSEQGEKSDRVSIKDNQKDRTFTVTMEGLRRDDADVYWCGIERRGPDLGTQVKVIVDPEGAASTTASSPTNSNMAVFIGSHKRNHYMLLVFVKVPILLILVTAILWLKGSQRVPEEPGEQPIYMNFSEPLTKDMAT
partner: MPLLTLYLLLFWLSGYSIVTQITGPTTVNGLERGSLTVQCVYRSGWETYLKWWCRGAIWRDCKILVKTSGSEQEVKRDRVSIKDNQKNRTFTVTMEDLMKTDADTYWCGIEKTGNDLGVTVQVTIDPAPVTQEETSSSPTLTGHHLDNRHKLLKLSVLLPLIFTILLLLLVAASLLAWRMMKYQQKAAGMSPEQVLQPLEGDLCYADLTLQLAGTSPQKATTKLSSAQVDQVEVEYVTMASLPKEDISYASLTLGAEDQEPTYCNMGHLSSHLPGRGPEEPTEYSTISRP
B2: CMRF35-like molecule 7 (Homo sapiens), A8K4G0 (parent)
chain: B1 chain
partner: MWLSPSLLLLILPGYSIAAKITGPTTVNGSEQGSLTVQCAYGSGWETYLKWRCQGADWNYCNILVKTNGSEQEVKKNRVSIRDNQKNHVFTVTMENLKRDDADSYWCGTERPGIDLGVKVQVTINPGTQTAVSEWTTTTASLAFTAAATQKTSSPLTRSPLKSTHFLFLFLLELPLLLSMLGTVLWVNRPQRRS
B3: CMRF35-like molecule 7 (Homo sapiens), A8K4G0 (parent)
chain: B1 chain
partner: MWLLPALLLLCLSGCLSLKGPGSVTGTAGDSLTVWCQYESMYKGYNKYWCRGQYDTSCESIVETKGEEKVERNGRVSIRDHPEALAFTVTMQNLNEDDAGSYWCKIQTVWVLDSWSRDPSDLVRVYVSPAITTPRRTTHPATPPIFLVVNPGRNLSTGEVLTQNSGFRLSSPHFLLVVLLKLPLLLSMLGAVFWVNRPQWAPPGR
B4: CMRF35-like molecule 7 (Homo sapiens), A8K4G0 (parent)
chain: B1 chain
partner: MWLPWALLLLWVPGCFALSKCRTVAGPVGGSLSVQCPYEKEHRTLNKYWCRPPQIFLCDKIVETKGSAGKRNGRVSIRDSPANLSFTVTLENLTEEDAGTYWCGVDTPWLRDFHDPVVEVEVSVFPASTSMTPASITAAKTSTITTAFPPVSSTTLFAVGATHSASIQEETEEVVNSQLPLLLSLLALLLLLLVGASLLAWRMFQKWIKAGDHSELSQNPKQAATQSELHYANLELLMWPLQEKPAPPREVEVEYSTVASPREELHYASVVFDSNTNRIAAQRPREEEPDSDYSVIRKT
B5: CMRF35-like molecule 7 (Homo sapiens), A8K4G0 (parent)
chain: B1 chain
partner: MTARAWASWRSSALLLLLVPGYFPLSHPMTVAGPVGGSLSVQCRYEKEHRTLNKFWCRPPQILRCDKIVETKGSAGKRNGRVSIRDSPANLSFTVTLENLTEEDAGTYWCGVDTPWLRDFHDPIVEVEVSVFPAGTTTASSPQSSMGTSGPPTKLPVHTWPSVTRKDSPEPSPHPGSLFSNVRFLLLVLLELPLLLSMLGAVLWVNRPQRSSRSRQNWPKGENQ

Variants of: B1
Conditions: with clm1_human CD300LF

effect of a mutation on the interaction	Variant
decreasing interaction strength	MWLPPALLLLSLSGCFSIQGPESVRAPAGGSLTVQCHYKQGWETYIKWWCRGVRWDTCKILIETRGSEQGEKSDRVSIKDNQKDRTFTVTMEGLRRDDADVYWCGIERRGPDLGTQVKVIVDPEGAASTTASSPTNSNMAVFIGSHKRNHYMLLVFVKVPILLILVTAILWLKGSQRVPEEPGEQPIYMNFSEPLTKDMAT [E28A;Q29G]

Variants of: B2
Conditions: with clm5_human CD300LD

effect of a mutation on the interaction	Variant
decreasing interaction strength	MWLPPALLLLSLSGCFSIQGPESVRAPAGGSLTVQCHYKQGWETYIKWWCRGVRWDTCKILIETRGSEQGEKSDRVSIKDNQKDRTFTVTMEGLRRDDADVYWCGIERRGPDLGTQVKVIVDPEGAASTTASSPTNSNMAVFIGSHKRNHYMLLVFVKVPILLILVTAILWLKGSQRVPEEPGEQPIYMNFSEPLTKDMAT [E28A;Q29G]

Variants of: B3
Conditions: with clm2_human CD300E

effect of a mutation on the interaction	Variant
decreasing interaction strength	MWLPPALLLLSLSGCFSIQGPESVRAPAGGSLTVQCHYKQGWETYIKWWCRGVRWDTCKILIETRGSEQGEKSDRVSIKDNQKDRTFTVTMEGLRRDDADVYWCGIERRGPDLGTQVKVIVDPEGAASTTASSPTNSNMAVFIGSHKRNHYMLLVFVKVPILLILVTAILWLKGSQRVPEEPGEQPIYMNFSEPLTKDMAT [E28A;Q29G]

Variants of: B4
Conditions: with clm8_human CD300A

effect of a mutation on the interaction	Variant
decreasing interaction strength	MWLPPALLLLSLSGCFSIQGPESVRAPAGGSLTVQCHYKQGWETYIKWWCRGVRWDTCKILIETRGSEQGEKSDRVSIKDNQKDRTFTVTMEGLRRDDADVYWCGIERRGPDLGTQVKVIVDPEGAASTTASSPTNSNMAVFIGSHKRNHYMLLVFVKVPILLILVTAILWLKGSQRVPEEPGEQPIYMNFSEPLTKDMAT [E28A;Q29G]

Variants of: B5
Conditions: with clm6_human CD300C

effect of a mutation on the interaction	Variant
with no effect	MWLPPALLLLSLSGCFSIQGPESVRAPEQGSLTVQCHYKQGWETYIKWWCRGVRWDTCKILIETRGSEQGEKSDRVSIKDNQKDRTFTVTMEGLGRGDADVYWCGIERRGPDLGTQVKVIVDPEGAASTTASSPTNSNMAVFIGSHKRNHYMLLVFVKVPILLILVTAILWLKGSQRVPEEPGEQPIYMNFSEPLTKDMAT [R95G;D97G]
decreasing interaction strength	MWLPPALLLLSLSGCFSIQGPESVRAPAGGSLTVQCHYKQGWETYIKWWCRGVRWDTCKILIETRGSEQGEKSDRVSIKDNQKDRTFTVTMEGLRRDDADVYWCGIERRGPDLGTQVKVIVDPEGAASTTASSPTNSNMAVFIGSHKRNHYMLLVFVKVPILLILVTAILWLKGSQRVPEEPGEQPIYMNFSEPLTKDMAT [E28A;Q29G]
